Type in all cases: biochemical
For one assay, the target named is T1, recombinant human PREP (Homo sapiens, UniProt P48147).
T1 construct: purchased R&D Systems 4308-SE
T1 sequence (P48147 1-710): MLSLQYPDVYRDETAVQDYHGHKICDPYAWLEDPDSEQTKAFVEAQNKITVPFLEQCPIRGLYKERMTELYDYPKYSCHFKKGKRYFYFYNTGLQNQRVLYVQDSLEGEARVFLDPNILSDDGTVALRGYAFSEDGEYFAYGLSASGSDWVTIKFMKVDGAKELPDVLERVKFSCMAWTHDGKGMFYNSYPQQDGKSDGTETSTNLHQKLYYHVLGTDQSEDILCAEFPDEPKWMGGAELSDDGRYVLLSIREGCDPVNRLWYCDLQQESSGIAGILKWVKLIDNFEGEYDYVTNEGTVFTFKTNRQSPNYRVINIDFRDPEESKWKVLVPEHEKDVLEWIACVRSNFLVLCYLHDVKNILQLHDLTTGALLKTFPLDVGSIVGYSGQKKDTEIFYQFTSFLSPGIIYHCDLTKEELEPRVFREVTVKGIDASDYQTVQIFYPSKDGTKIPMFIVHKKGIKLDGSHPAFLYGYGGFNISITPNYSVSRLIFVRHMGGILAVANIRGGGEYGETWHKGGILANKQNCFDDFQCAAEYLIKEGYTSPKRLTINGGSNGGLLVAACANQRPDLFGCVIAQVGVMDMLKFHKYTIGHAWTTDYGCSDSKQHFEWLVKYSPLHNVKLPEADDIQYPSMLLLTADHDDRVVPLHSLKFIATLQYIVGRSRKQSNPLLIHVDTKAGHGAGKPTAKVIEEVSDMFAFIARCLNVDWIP
Briefly: FRET-quench assay: probe cleavage by recombinant human PREP. To be noted: 1 nM enzyme. From the text:
Human prolyl oligopeptidase (PREP, 4308-SE), DPPIV (1180-SE), DPP9 (5419-SE), and DPPII/DPP7 (3438-SE) proteins were purchased from R&D Systems. Human DPP8 (BML-SE527) protein was purchased from Enzo Life Sciences. N-terminal octa-His-tagged human and mouse FAP proteins containing the extracellular domain (residues L26-D760 and L26-D761, respectively) were purified from the conditioned media of transiently-transfected CHO cells, by immobilized metal affinity chromatography (IMAC), followed by size exclusion chromatography (SEC).
(§1) Peptides of the region flanking the C-terminal human FGF21 cleavage site (VGPSQG) or a variant with D-alanine at P2 (VaPSQG) were synthesized (Anaspec, Inc.), containing an amine-terminal donor (HyLite Fluor 488 or Cy5.5 for aP NIRF) and a dark quencher-acceptor (QXL 520 or QSY21 for aP NIRF) conjugated to a supplementary C-terminal lysine. ANPFAP (Bioconjugate Chem 23:1704-11) and aP NIRF were synthesized by CPC Scientific (Sunnyvale, Calif.). Assays were conducted at 37° C. in 50 mM HEPES (pH 7.2), 150 mM NaCl, 1 mM EDTA, 0.1 mg/ml BSA. The excitation/emission wavelengths of cleaved peptide are 490/520 nm or 675/695 nm for ANPFAP and aP NIRF. Fluorescence was monitored on a Tecan M1000 Pro plate reader in kinetic mode. Except where indicated otherwise, measurements of serum or plasma FAP activity were performed with the peptide substrate concentration at 6 μM and a 10-fold dilution of serum or plasma in assay buffer.

The target of a further assay is T2, FAP (Homo sapiens, UniProt Q12884).
T2 construct: the extracellular domain encoding the active enzyme can be shed from the cell surface; tissue Discovery Life Sciences, Inc. (part of the samples); host or cells: human serum (healthy donors, cirrhosis patients)
T2 sequence (Q12884 24-760 limits assumed): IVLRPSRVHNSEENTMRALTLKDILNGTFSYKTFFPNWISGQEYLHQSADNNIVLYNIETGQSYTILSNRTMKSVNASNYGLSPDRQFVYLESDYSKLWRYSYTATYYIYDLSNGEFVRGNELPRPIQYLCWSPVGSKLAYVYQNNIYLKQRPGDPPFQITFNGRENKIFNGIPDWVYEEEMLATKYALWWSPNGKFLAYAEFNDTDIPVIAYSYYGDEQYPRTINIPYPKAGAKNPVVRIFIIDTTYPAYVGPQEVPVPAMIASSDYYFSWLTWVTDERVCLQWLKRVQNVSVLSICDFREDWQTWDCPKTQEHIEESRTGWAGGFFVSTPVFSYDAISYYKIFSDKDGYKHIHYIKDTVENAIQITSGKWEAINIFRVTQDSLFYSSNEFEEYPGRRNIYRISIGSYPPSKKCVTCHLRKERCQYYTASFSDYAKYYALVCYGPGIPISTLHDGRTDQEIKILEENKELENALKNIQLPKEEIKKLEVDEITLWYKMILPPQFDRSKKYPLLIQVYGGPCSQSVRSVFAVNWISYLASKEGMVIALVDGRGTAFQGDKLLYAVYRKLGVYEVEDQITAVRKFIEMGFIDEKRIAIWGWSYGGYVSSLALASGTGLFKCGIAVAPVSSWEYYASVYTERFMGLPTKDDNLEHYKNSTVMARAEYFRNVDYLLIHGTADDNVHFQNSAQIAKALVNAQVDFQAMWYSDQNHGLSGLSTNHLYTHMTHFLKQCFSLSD
Briefly: aP cleavage in anti-FAP or control IgG-immunodepleted human serum. The note with it: after FAP immunodepletion; serum diluted 2.5-fold. The protocol:
Mouse plasma samples were prepared in K3-EDTA MiniCollect tubes (Greiner Bio-One, 450475) and frozen immediately at −80° C. prior to analysis. Human serum samples were obtained from healthy donors or purchased from Discovery Life Sciences, Inc. (Los Osos, Calif.).
as §1

Assay [1] deals with human or mouse recombinant FAP. Nature of the assay: Michaelis-Menten kinetics of GP and aP cleavage by recombinant FAP. To be noted: corrected for active enzyme concentration. As to the method:
Michaelis-Menten kinetic measurements were carried out using 5 nM human or mouse recombinant FAP, with a series of peptide substrate titrations. Initial rate of substrate hydrolysis was determined using the Magellan software on a Tecan M1000 Pro plate reader and kinetic parameters were modeled using nonlinear regression analysis with GraphPad Prism software. Standard error was calculated from three experimental replicates.
As described by Copeland ((2000) Enzymes: a practical introduction to structure, mechanism, and data analysis, 2nd ed., J. Wiley, New York) the active enzyme concentration was determined from the x-intercept.

No end group written: not given here.

“GP probe: human FGF21 cleavage-site peptide VGPSQG with amine-terminal HyLite Fluor 488 donor and QXL 520 quencher on supplementary C-terminal lysine ({HyLite Fluor 488}-VGPSQGK(QXL 520))”: in the assay with recombinant human PREP, the “cleavage by recombinant human PREP” value was “readily cleaved”.
Take “aP probe: FGF21-based peptide VaPSQG (D-alanine at P2) with HyLite Fluor 488 donor and QXL 520 quencher”: in the assay with recombinant human PREP, the “cleavage by recombinant human PREP” value was “unable to digest”. The “cleavage signal in human serum” value with FAP is “signal is lost”. In assay [1], the “Km relative to parental GP peptide” value is reported as “essentially unchanged” and the “decrease in kcat relative to GP peptide” value is listed as “seven to eight-fold decrease”.

The record behind these values is US20200055896A1, “SUBSTRATES RECOGNIZED BY FIBROBLAST ACTIVATION PROTEIN (FAP) AND METHODS OF USING THE SAME” (GENENTECH, INC., priority 2017, published 2020).
